Experimental data taken from the supplement of paper PMC6755084.

B1: minF1; the commonest letter at each place (parent)
chain: GAGACCGCAACTGAAAAGTTGTTATCAGAAATGGATGGGTTGAATTTCTGCACGTAGAAGCAAAAGGC

Variants of: B1
Assay: fraction ligated after 30 min (ligated reads / total reads); higher = more ligase activity
Details: with F1*subA RNA substrate (template-directed ligation), 42 °C
Summary of the method: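 Oligo-pool templates of minimized ligase ribozyme variants were PCR-amplified, T7-transcribed and gel-purified. Ligated and unligated RNAs were gel-separated, reverse transcribed with barcoded primers, and MiSeq-sequenced; core bases were filtered at quality ≥30. Fraction ligated per variant was ligated reads over total reads.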

Row | Variant | fraction ligated
1 | GAGACCGCAACTGAAAAGTTGTTATCAGAAATGGATCGGTTTAATTTCTGCACGTAGAAGCAAAAGGC | 0.00137
2 | GAGACCGCAACTGAAAAGTTGTTATCAGAAATGGATGGGTTCGGTTTCTGCACGTAGAAGCAAAAGGC | 0.00392
3 | GAGACCGCAACTGAAAAGTTGTTATCAGAAATGGATGGGTTCGTTTTCTGCACGTAGAAGCAAAAGGC | 0.00288
4 | GAGACCGCAACTGAAAAGTTGTTATCAGAAATGGATGGGTTCGCTTTCTGCACGTAGAAGCAAAAGGC | 0.000834
5 | GAGACCGCAACTGAAAAGTTGTTATCAGAAATGGATAGGTTTAATTTCTGCACGTAGAAGCAAAAGGC | 0.00089
6 | GAGACCGCAACTGAAAAGTTGTTATCAGAAATGGATAGGTTAAATTTCTGCACGTAGAAGCAAAAGGC | 0.00332
7 | GAGACCGCAACTGAAAAGTTGTTATCAGAAATGGATAGGTTCAATTTCTGCACGTAGAAGCAAAAGGC | 0.00225
8 | GAGACCGCAACTGAAAAGTTGTTATCAGAAATGGATGGGTTCACTTTCTGCACGTAGAAGCAAAAGGC | 0.00284
9 | GAGACCGCAACTGAAAAGTTGTTATCAGAAATGGATGGGTTCATTTTCTGCACGTAGAAGCAAAAGGC | 0.00542
10 | GAGACCGCAACTGAAAAGTTGTTATCAGAAATGGATGGGTTCAGTTTCTGCACGTAGAAGCAAAAGGC | 0.00439
11 | GAGACCGCAACTGAAAAGTTGTTATCAGAAATGGATCGGTTGGATTTCTGCACGTAGAAGCAAAAGGC | 0.00302
12 | GAGACCGCAACTGAAAAGTTGTTATCAGAAATGGATCGGTTGCATTTCTGCACGTAGAAGCAAAAGGC | 0.00193
13 | GAGACCGCAACTGAAAAGTTGTTATCAGAAATGGATCGGTTGTATTTCTGCACGTAGAAGCAAAAGGC | 0.00493
14 | GAGACCGCAACTGAAAAGTTGTTATCAGAAATGGATGGGTTAGATTTCTGCACGTAGAAGCAAAAGGC | 0.0596
15 | GAGACCGCAACTGAAAAGTTGTTATCAGAAATGGATGGGTTATATTTCTGCACGTAGAAGCAAAAGGC | 0.00678
16 | GAGACCGCAACTGAAAAGTTGTTATCAGAAATGGATGGGTTACATTTCTGCACGTAGAAGCAAAAGGC | 0.0101
17 | GAGACCGCAACTGAAAAGTTGTTATCAGAAATGGATGGGTTGCGTTTCTGCACGTAGAAGCAAAAGGC | 0.00638
18 | GAGACCGCAACTGAAAAGTTGTTATCAGAAATGGATGGGTTGCCTTTCTGCACGTAGAAGCAAAAGGC | 0.00194
19 | GAGACCGCAACTGAAAAGTTGTTATCAGAAATGGATGGGTAGAATTTCTGCACGTAGAAGCAAAAGGC | 0.689
20 | GAGACCGCAACTGAAAAGTTGTTATCAGAAATGGATGGGTGGAATTTCTGCACGTAGAAGCAAAAGGC | 0.146

Row | Variant | fraction ligated
21 | GAGACCGCAACTGAAAAGTTGTTATCAGAAATGGATGGGTCGAATTTCTGCACGTAGAAGCAAAAGGC | 0.86
22 | GAGACCGCAACTGAAAAGTTGTTATCAGAAATGGATTGGTTGACTTTCTGCACGTAGAAGCAAAAGGC | 0.00343
23 | GAGACCGCAACTGAAAAGTTGTTATCAGAAATGGATTGGTTGATTTTCTGCACGTAGAAGCAAAAGGC | 0.0093
24 | GAGACCGCAACTGAAAAGTTGTTATCAGAAATGGATTGGTTGAGTTTCTGCACGTAGAAGCAAAAGGC | 0.0087
25 | GAGACCGCAACTGAAAAGTTGTTATCAGAAATGGATCGGTTGACTTTCTGCACGTAGAAGCAAAAGGC | 0.00161
26 | GAGACCGCAACTGAAAAGTTGTTATCAGAAATGGATCGGTTGAGTTTCTGCACGTAGAAGCAAAAGGC | 0.00293
27 | GAGACCGCAACTGAAAAGTTGTTATCAGAAATGGATCGGTTGATTTTCTGCACGTAGAAGCAAAAGGC | 0.00681
28 | GAGACCGCAACTGAAAAGTTGTTATCAGAAATGGATGGGTTGCATTTCTGCACGTAGAAGCAAAAGGC | 0.115
29 | GAGACCGCAACTGAAAAGTTGTTATCAGAAATGGATGGGTTTTGTTTCTGCACGTAGAAGCAAAAGGC | 0.000847
30 | GAGACCGCAACTGAAAAGTTGTTATCAGAAATGGATGGGTTTTCTTTCTGCACGTAGAAGCAAAAGGC | 0.00206
31 | GAGACCGCAACTGAAAAGTTGTTATCAGAAATGGATGGGTTTTTTTTCTGCACGTAGAAGCAAAAGGC | 0.00186
32 | GAGACCGCAACTGAAAAGTTGTTATCAGAAATGGATGGGTTCCCTTTCTGCACGTAGAAGCAAAAGGC | 0.00224
33 | GAGACCGCAACTGAAAAGTTGTTATCAGAAATGGATGGGTTCCTTTTCTGCACGTAGAAGCAAAAGGC | 0.00191
34 | GAGACCGCAACTGAAAAGTTGTTATCAGAAATGGATGGGTTCCGTTTCTGCACGTAGAAGCAAAAGGC | 0.00342
35 | GAGACCGCAACTGAAAAGTTGTTATCAGAAATGGATGGGTTTAATTTCTGCACGTAGAAGCAAAAGGC | 0.117
36 | GAGACCGCAACTGAAAAGTTGTTATCAGAAATGGATGGGTTAAATTTCTGCACGTAGAAGCAAAAGGC | 0.364
37 | GAGACCGCAACTGAAAAGTTGTTATCAGAAATGGATGGGTTCAATTTCTGCACGTAGAAGCAAAAGGC | 0.0127
38 | GAGACCGCAACTGAAAAGTTGTTATCAGAAATGGATTGGTTGTATTTCTGCACGTAGAAGCAAAAGGC | 0.00731
39 | GAGACCGCAACTGAAAAGTTGTTATCAGAAATGGATTGGTTGCATTTCTGCACGTAGAAGCAAAAGGC | 0.00313
40 | GAGACCGCAACTGAAAAGTTGTTATCAGAAATGGATTGGTTGGATTTCTGCACGTAGAAGCAAAAGGC | 0.00602
